Measurements published in the nanobody polyreactivity screen of Harvey et al. (2022).

Experiment: yeast display, Sf9 membrane polyspecificity reagent, FACS + sequencing; frameworks hold sequencing errors
Method in brief: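 Galactose induction of a Saccharomyces cerevisiae BJ5465 synthetic nanobody display library ran 36–48 hours. The cells were then stained for 1 hour at 4 °C with 10% biotinylated, detergent-solubilized Sf9 membrane reagent, pulled down on streptavidin microbeads and FACS-sorted into low and high (top ~1%) gates on expression and reagent-binding fluorescence. Labels for polyreactivity follow the gate of origin.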

Q: With “QFQLVESVGGLVQAGGSLRLSFAASGFNFDYNAMGWYRQAPGKERELVAAISNTGDSTYYADSVKGRFTISRDNAKNTVYLQMNSLQPEDTAVYYCAADSLFDDYWEYDYWGQGTQVTVSS” as the sequence, how does the “polyreactivity (PSR sort gate)” value read?
A: low polyreactivity

Q: With “QFQLVETGGGLVQAGGSLRLSCAASGSILGFNAMRWYIQAPGKESELGAAIRWSGDSTYADSVKGLFTMSRDNAKNTVYLQMNSLTQEDPSFYYCNARDTSYANWLSHFYYWGQGTQVTVSW” as the sequence, how does the “polyreactivity (PSR sort gate)” value read?
A: low polyreactivity

Q: With “QFQLVETGGGLVQAGGSLRLSSAASGSTFTLYAMGWYRQAPGKERELVATITGSGGSTNYADSVKGRFTISRDNAKNTVYLQMNSLKPEDTAVYYCAADYAVYSFTEFNYWGQGTQVTVSS” as the sequence, how does the “polyreactivity (PSR sort gate)” value read?
A: high polyreactivity

Q: With “QFQRGESGGGLVQAGGSLRLSCAASGRLFYSYAMGGYRQAPGKERELVAAINSGDRTYYADSVKGRFTISRDNAKNTVYLQKNSLNPEDPAVYYCATRWFAFPWDEYNYWGQGSQVTVSS” as the sequence, how does the “polyreactivity (PSR sort gate)” value read?
A: low polyreactivity

Q: Which “polyreactivity (PSR sort gate)” value does the source give for “QFQRVDSGGGLVQAGGSLRLSCAASGSTLAVNAMGWYRQAHGKERELVAAITRSGGRTYYADSLKWRFTISRDNAKNTVYLQMNSLKPEDTAVYYFGAKWYYPFIPKRTTRYGFDYWGHGTQVTVSS” here?
A: high polyreactivity

Q: Which “polyreactivity (PSR sort gate)” value does the source give for “QGHLVESGGGLVQAGGSLRLSCAASGVTFYTYDMGWYRQAPGKERELVAGIDWSGGSTYYADSVNGRFTISRDNAKNTVDLLMNSLKPEYTAVYYCASDYYYASQMDYWGQGTQVTVSS” here?
A: low polyreactivity

Q: Which “polyreactivity (PSR sort gate)” value does the source give for “QGLLVESGGGLVQAGGSLRLTCAASGFIFSGYAMGWYRPAPGKERELVAAISWSGSSTYYADSVKGRFTISRDNAKNTVYLQMNSLKPEDTAVYYCAAWYTSTRPYDYWGQGTQVTVSS” here?
A: high polyreactivity

Q: With “QGQHVESGGGLVHAGGSLRLSCAASGSIFPYYAMGWYRQRPGKERELVAAITDCGSTNYADSVKGRFTISRDNAKNTVYLQMNSLKPEDTAVYYCNKLAGYYDYDYWGQCTQVTVSS” as the sequence, how does the “polyreactivity (PSR sort gate)” value read?
A: low polyreactivity

Q: With “QGQHVESGGGLVQAGGSLRLSCAASGSIFAAYAMGWYRQATGKERELVAPIDRGGSTDYADSVKGRFTISRDNAKNTVFLPMNSLKPEDTAVYYCDKGYDYYVRRYYYWGQGTQVTGSS” as the sequence, how does the “polyreactivity (PSR sort gate)” value read?
A: high polyreactivity

Q: Which “polyreactivity (PSR sort gate)” value does the source give for “QGQHVESGGGLVQAGGSLRLSCDASGSTIYQYAMGWYRQAPGKESELVAAISGISGSTSYADSVTGRFTISRDNAKNTVYLQMNSLKPEDTAVYDCAKGTAPIPYRGRVGTSKSDYWGQGTQVTVSS” here?
A: low polyreactivity

Q: For “QGQHVESGGGLVQAGGSLRLSSAASGITISYYGMGWYRQERGKDRELVASITKRGGRTYYADSVKGRFTISRDNAKNTVYLQMNSLKPEETAVYYCAADRAAPRYDYWGQGTQVTVSS”, which “polyreactivity (PSR sort gate)” value is on record?
A: high polyreactivity

Q: With “QGQHVESGGGLVQARGSRRLSCAPSGRTFGYDAMGWYRQAPGKERELVAAINYSGVSTYYADSVKGGFTISRDTAKNTVYLQRNSLKPEDTAGSYCAAKGRYSVYSRNSWGQGTQVTVSS” as the sequence, how does the “polyreactivity (PSR sort gate)” value read?
A: high polyreactivity

Q: With “QGQLEESGGGLVQAGGSLRLTCAASGRNLRTYAMGWYRQATGKERELVAAISRGGSTNYADSVKGRFTISRDNAKNTVYLQMHSLKPEDTAVYYCAAGYVRYYSDYVSYVYWGQGTQVTVSS” as the sequence, how does the “polyreactivity (PSR sort gate)” value read?
A: low polyreactivity

Q: For “QGQLEESVGGLVQAGGSLRLSCAASGRIFRYYAMGLYRQAPGKERELVAAIRSGGSTNYADSVKGRFTISRDNAKNTVYLQMKSLKPEDTAVYYCNARYRYFKGGYWGQGTQVTVSS”, which “polyreactivity (PSR sort gate)” value is on record?
A: high polyreactivity

Q: Which “polyreactivity (PSR sort gate)” value does the source give for “QGQLVASGGGLVQAGGSLRLSSAASGSIFWLSTMGWSRQGPGKEREWVAAITGSGSATYYADSVKGRFTISRDYAKNTVYLQMTTLKPEDTADYYCAAYWSSARRRYDYWGQGSQVTVSS” here?
A: high polyreactivity

Q: For “QGQLVDSGGGLVQAGGSLRLICAASGYIFRLYAMGWYRHAPGKERELVAAISRRGGSTYYADSVKGRFTISRDNAKITVYLQMNSLKPEDTAVYYGATDHSYIDDYWGQGTQVTVSS”, which “polyreactivity (PSR sort gate)” value is on record?
A: high polyreactivity

Q: With “QGQLVESGGALVQAGGSLRISCAASGRTISQNSMGLYRPAPGKERELVAAIRRGGSTNYADSVKGRFTISRDNAKNTVFLQMNSLKQEDSAFYYCAGDLRRNGWGFDYWGQGTQVTVSS” as the sequence, how does the “polyreactivity (PSR sort gate)” value read?
A: high polyreactivity

Q: For “QGQLVESGGALVQAGGSLRLSCAPSGSTFGVYTMGWYRQAPGKERELVAAITKSGGSTYYADSVKGRFTISRDNAKNTVYLQMNSLKPEDTAVYYCNTDYGSYLYYRYGYWGQGTQVTVSS”, which “polyreactivity (PSR sort gate)” value is on record?
A: low polyreactivity

Q: Which “polyreactivity (PSR sort gate)” value does the source give for “QGQLVESGGGIVQAGCSLLLSCSASGLIFRRKTLGWYRQAPGTERELVAVISSSGSSTYYADSVKGRFTISRDNAKNTVYLQMNSLKPEDTAVYYCAARYAIGPGYDYWGQGTQVTVSS” here?
A: high polyreactivity

Q: Which “polyreactivity (PSR sort gate)” value does the source give for “QGQLVESGGGLGQAGGSLRLSCAASGSTFGDSAMVWYRQAPGKERELVAGISARGGRTYYADSVKGRFTISRDNAKNTVYLQMNSLKPEDTAVYDCNARTGYQDGSYGNDYWGQGTQVTVSS” here?
A: high polyreactivity

Q: With “QGQLVESGGGLGQEGGSLRLICAASGNTFDYYVMGWYRQAPGKERELVAVITSGSSTYYADSVKGRFTISRDNAKNTVFFQMNSLQPEDTAVYYCAKTTRRPGLRSYDYWGQGTQVTVSS” as the sequence, how does the “polyreactivity (PSR sort gate)” value read?
A: high polyreactivity

Q: With “QGQLVESGGGLVQAGCSLRLSCAASGSNFYYKAMGWYRQAPRKERELVARISRSGGSTYADSVKGRFTISRDNAKNTVYLQMNSLKPEDTAVYYCNADAYGTPEFTPYSVRYDYWGQGTQVTVSS” as the sequence, how does the “polyreactivity (PSR sort gate)” value read?
A: low polyreactivity

Q: For “QGQLVESGGGLVQAGGILRLRCAACGSTILVYAMGWYRHAPGQERELVAFIDNGGDTYYADSVKGRFTISRDNAKNTVYLQMYSLKPEDTEVYYCADDLSYLGYWEYDYWGQGTQVTVSS”, which “polyreactivity (PSR sort gate)” value is on record?
A: low polyreactivity

Q: For “QGQLVESGGGLVQAGGSLRLRSAASGRTFNYYAMGWYRQAHGKERELVATSSWSGVSTRYADSVKGRFTISRDNAKNTVYLEMNSLNPEDTAVYYCNAGYSKRSFYSAYGYWGEGTQVTVSS”, which “polyreactivity (PSR sort gate)” value is on record?
A: high polyreactivity

Q: Which “polyreactivity (PSR sort gate)” value does the source give for “QGQLVESGGGLVQAGGSLRLSCAASGFSFQYYAMGWSRHAHGKERELVAAINRGGGTHYADSVKGRFTISRDNAKNTVYFQMHSLKPEDTAVYYCNKVYYWPGSRPSRYEYWGQGTQVTVSS” here?
A: low polyreactivity

Q: For “QGQLVESGGGLVQAGGSLRLSCAASGFSYGFYAMGWYRQAPGKERELVASNSNGDSTNYADSVKGRFTISRDNAKNTVYLQMNSLKPEDTAVYYCATYGGYNPSPLYWGQGTQVTVSS”, which “polyreactivity (PSR sort gate)” value is on record?
A: high polyreactivity

Q: Which “polyreactivity (PSR sort gate)” value does the source give for “QGQLVESGGGLVQAGGSLRLSCAASGFTFKFYAMGWYRQAPGKEREFVAAISGSGGSTYYAHSVKGRFTISRDNAKNTVYLQMNSLKPEDTAVYYCAAEVPGKPYGRSRYSFRHDYWGQGTQVTVSS” here?
A: low polyreactivity

Q: Which “polyreactivity (PSR sort gate)” value does the source give for “QGQLVESGGGLVQAGGSLRLSCAASGGTFSDNVMGWYRQAPGKERELVAANSRSGGSTYYADSVKGRNTISRDNAKNTLSLQMNSLKPEDTAVYYCNAIGSKRGAYKAAFNYWGQGTQVTVSS” here?
A: high polyreactivity

Q: With “QGQLVESGGGLVQAGGSLRLSCAASGITFYSYAMGWYRQAPGKERELVAAITLTGGTTYYADSVKGRFTISRDNAKNTVYLQMNSLKPEDTAVYYCNSDYGGGVDGTYKYYSEYDYWGQGTQVTVSS” as the sequence, how does the “polyreactivity (PSR sort gate)” value read?
A: low polyreactivity

Q: For “QGQLVESGGGLVQAGGSLRLSCAASGITYYKYVMAWYIQAPGKERELVAAISRSSGSTYYADSVKGRFTISRDNAKNTVYLQMNSLKPEDTAVYYCARDQGKLVVPYDYWGQGTQVTVSS”, which “polyreactivity (PSR sort gate)” value is on record?
A: high polyreactivity

Q: With “QGQLVESGGGLVQAGGSLRLSCAASGLIFYKYAMGWYRQAPGKERVLVAAISSSGGSTYYGDSVKGRFTISRDTAKNTVYFQMNSLKPEDTADSSCAARTNRRGYHDWGQGTQVTVSS” as the sequence, how does the “polyreactivity (PSR sort gate)” value read?
A: high polyreactivity

Q: Which “polyreactivity (PSR sort gate)” value does the source give for “QGQLVESGGGLVQAGGSLRLSCAASGRIFYTNAMGGYRQARGKERELVAGINYSGGNTYADSVKGRFTISRDNAKNTVYLQMNSLKPEDTAVYYCAARGWSHYGYGDNYRHGYWGQGTQVTVSS” here?
A: high polyreactivity

Q: For “QGQLVESGGGLVQAGGSLRLSCAASGRTFDSNAMGWYRQAPGKERELFAAISQRGGRTYYADSVKGRFTISRDNAKNTVYFQMNSLKQVYTAFYYCNKVGRRKLDYWGQGTQVTVSS”, which “polyreactivity (PSR sort gate)” value is on record?
A: high polyreactivity

Q: For “QGQLVESGGGLVQAGGSLRLSCAASGRTFYTYAMGWYSPAAGKERELVAAMTRSGGRTYYADSVKVRFTISRDNAKNTVYLQMNSLKPEDTAVYYCGAKTFYWWADYDYWGQGTQVTVSS”, which “polyreactivity (PSR sort gate)” value is on record?
A: high polyreactivity

Q: With “QGQLVESGGGLVQAGGSLRLSCAASGRTFYVNAMGWYRQAPGKERELVAGISFSDGSTYYADSVKGRFTISRDNAKNSVYLQMNSLKPEDTAVYYCATVGAFDIYYGYGYWVQGTQVTVSS” as the sequence, how does the “polyreactivity (PSR sort gate)” value read?
A: low polyreactivity

Q: For “QGQLVESGGGLVQAGGSLRLSCAASGRTLQYNAMGWYRPAPGKEWELVAAITSNGGSTYYADSVKGRFPISRDNAKNTVYLQMNSQKPEDTAVYDCAKAYRYVDRGYRLLRYGYWGQGNQVTVSS”, which “polyreactivity (PSR sort gate)” value is on record?
A: high polyreactivity

Q: With “QGQLVESGGGLVQAGGSLRLSCAASGSIFGGYGMGWYRQAPGKERELVAAITSGSSTYYADSVKGRFTISRDNAKNTVYLQMNSLKPEDTAVYYCAARPYPHSAYEGDYWGRGTQVTVSS” as the sequence, how does the “polyreactivity (PSR sort gate)” value read?
A: low polyreactivity

Q: Which “polyreactivity (PSR sort gate)” value does the source give for “QGQLVESGGGLVQAGGSLRLSCAASGSIFGQYVMGWYRQAPGKERELVAAISGTGGSTYYADSVKGRFTISRDNAKNTVYLQMNSLKPEDTAVYYCAVVHRSSYRESGLLWRYYWGQGTQVTVSS” here?
A: high polyreactivity

Q: For “QGQLVESGGGLVQAGGSLRLSCAASGSIFRGYAMGWYRQAPGKERELVAAISWSGGSTYYADSVKGRFTISRDNAKNTVYLQMNSLKPEDTAVYYCAADRDVFGYWYYYWGQGTQVTVSS”, which “polyreactivity (PSR sort gate)” value is on record?
A: high polyreactivity

Q: Which “polyreactivity (PSR sort gate)” value does the source give for “QGQLVESGGGLVQAGGSLRLSCAASGSIFSKNALGWYRQAPGRERELVAAITSGASTNYADSVKGRFTISRDNAKNTVYLQMNSLKPEDTAGYYCAAKRNGFWYGYWGQGTQVTVSS” here?
A: low polyreactivity

Q: With “QGQLVESGGGLVQAGGSLRLSCAASGSIFYWYAMGWYRQAPGKERELVAVISTGTSTKYADSVKGRFTISRDNAKNTVYLQMNSLKPEDTAVYYCNADPVGPKYDYWGQGTQVTVSS” as the sequence, how does the “polyreactivity (PSR sort gate)” value read?
A: low polyreactivity
